From patent US20090293142A1

Columns and labels:
[1] = biological target: invertase activity in the soluble fraction of a leaf extract of a wild type plant; experiment: cell-based or functional assay
[2] = biological target: invertase activity in the cell wall fraction of wild type tobacco leaves; experiment: cell-based or functional assay

## Arabidopsis thaliana cell wall invertase inhibitor AtC/VIF2 (At5g46940)
[1]
  invertase activity in mixed-extract assay, percent of the added value of the extracts incubated separately (5 mM sucrose, pH 4.5): 86%

## Arabidopsis thaliana vacuolar invertase inhibitor AtC/VIF1 (At1g47960) (from UniProt F4HWQ8 24-205)
[1]
  invertase activity in mixed-extract assay, percent of the added value of the extracts incubated separately (5 mM sucrose, pH 4.5): 79%

## tobacco apoplasmic invertase inhibitor (Greiner et al., 1998)
[2]
  invertase activity in mixed-extract assay, percent of the added value (1 mM sucrose; concentrated cell wall fraction of transgenic leaves): 58%
  invertase activity in mixed-extract assay, percent of the added value (5 mM sucrose; concentrated cell wall fraction of infiltrated transgenic leaves): 70%
